According to patent US20190062438A1 (CSL, published 2019):

Legend:
human GM-CSFR α-chain = molecular target: T1, human GM-CSFR α-chain (human, UniProt P15509 23-400); test: flow cytometry, transiently transfected cells
T1 construct: whole, on cells; also called GMRα
T1 sequence (looked up): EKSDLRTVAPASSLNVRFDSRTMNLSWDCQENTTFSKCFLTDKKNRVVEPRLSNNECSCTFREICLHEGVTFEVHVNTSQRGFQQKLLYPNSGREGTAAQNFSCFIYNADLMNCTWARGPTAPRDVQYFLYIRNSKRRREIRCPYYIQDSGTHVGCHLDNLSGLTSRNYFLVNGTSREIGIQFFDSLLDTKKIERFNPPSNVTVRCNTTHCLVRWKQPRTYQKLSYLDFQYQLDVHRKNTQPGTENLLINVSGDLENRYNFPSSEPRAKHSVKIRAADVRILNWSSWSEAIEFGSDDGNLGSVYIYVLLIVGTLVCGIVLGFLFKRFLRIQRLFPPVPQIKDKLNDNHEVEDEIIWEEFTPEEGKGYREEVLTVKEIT

human IL-5R α-chain = molecular target: T2, human IL-5R α-chain (human, UniProt Q01344 21-420); test: flow cytometry, transiently transfected cells
T2 construct: also called Hu-IL5R α chain isoform 1
T2 sequence: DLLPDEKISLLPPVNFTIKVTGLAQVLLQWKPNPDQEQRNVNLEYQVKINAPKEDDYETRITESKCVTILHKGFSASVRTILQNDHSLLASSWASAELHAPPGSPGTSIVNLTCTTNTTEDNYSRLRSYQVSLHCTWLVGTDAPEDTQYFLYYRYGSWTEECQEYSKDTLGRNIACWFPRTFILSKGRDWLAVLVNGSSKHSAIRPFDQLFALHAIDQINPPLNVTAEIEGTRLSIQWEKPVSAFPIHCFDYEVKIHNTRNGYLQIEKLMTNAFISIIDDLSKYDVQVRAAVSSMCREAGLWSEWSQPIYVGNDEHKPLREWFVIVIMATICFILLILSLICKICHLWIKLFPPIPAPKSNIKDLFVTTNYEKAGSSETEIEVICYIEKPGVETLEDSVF

human IL-3R α-chain = molecular target: T3, human IL-3R α-chain (human, UniProt P26951 19-378); test: flow cytometry, transiently transfected cells
T3 construct: also called Hu-IL3R α chain

human CD131 = molecular target: T4, human CD131 (human, UniProt P32927 17-897); test: cell-based or functional assay
T4 sequence: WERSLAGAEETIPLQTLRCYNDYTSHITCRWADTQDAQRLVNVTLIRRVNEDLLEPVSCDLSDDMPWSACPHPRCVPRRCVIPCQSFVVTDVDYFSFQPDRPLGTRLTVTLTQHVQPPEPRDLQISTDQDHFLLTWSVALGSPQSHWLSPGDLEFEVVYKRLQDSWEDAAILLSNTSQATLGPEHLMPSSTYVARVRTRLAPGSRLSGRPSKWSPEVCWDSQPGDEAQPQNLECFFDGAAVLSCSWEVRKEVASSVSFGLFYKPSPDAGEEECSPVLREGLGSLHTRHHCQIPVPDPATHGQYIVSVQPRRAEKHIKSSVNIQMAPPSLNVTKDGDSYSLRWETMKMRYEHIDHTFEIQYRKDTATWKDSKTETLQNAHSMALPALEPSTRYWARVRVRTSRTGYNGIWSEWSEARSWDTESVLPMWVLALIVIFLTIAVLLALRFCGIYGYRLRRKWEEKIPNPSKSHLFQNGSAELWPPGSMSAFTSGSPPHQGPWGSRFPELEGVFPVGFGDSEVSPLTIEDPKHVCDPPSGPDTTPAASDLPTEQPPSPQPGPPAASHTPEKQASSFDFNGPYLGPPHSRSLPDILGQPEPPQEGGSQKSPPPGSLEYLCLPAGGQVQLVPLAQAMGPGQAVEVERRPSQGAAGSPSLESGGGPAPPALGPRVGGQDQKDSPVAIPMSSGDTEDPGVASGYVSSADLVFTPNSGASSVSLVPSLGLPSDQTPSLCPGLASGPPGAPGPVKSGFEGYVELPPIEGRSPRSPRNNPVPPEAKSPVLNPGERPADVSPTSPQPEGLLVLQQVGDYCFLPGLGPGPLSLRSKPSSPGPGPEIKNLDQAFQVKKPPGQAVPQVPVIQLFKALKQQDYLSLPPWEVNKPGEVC

T3 sequence (P26951 19-378 limits assumed): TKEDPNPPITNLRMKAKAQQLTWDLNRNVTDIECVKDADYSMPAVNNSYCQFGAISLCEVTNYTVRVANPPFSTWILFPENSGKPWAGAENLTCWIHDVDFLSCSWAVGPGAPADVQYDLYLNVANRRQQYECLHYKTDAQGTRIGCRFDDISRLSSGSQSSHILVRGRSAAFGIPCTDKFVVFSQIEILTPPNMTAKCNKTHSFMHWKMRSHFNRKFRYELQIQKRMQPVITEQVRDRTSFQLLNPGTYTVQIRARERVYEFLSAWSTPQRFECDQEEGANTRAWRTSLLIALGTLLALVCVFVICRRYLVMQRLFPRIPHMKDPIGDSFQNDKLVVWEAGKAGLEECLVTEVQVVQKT

- binding result (human GM-CSFR α-chain): no binding
- binding result (human IL-5R α-chain): no binding
- binding result (human IL-3R α-chain): no binding
- IC50 GM-CSF, TF-1 proliferation (human CD131): 456 nM
- IC50 IL-3, TF-1 proliferation (human CD131): 5.96 nM
- IC50 IL-5, TF-1 proliferation (human CD131): 1450 nM
- pStat5 IC50 GM-CSF, TF-1 bla reporter (human CD131): 40 nM
- pStat5 IC50 IL-3, TF-1 bla reporter (human CD131): 7.3 nM
B1: 9A2 (antibody, IgG4, V domains shown)
VH: EVQLLESGGGLVQPGGSLRLSCAASGFTFSHYHMLWVRQAPGKGLEWVSSIRSSGGFTYYADSVKGRFTISRDNSKNTLYLQMNSLRAEDTAVYYCARFYDSFFDIWGQGTMVTVSS
VL: DIQMTQSPSSVSASVGDRVTITCRASQGISSWLAWYQQKPGKAPKLLIYAASSLQSGVPSRFSGSGSGTDFTLTISSLQPEDFATYYCQQANSFPITFGQGTRLEIKR
notes: IgG4pK (IgG4 S241P, kappa); also called parental 9A2
